28 molecules from US20120039802A1 (published 2012) can be followed below.

For test [1], the target named is T1, cMet-Fc fusion protein (extracellular domain of the cMet receptor expressed as an Fc-fusion protein) (human, UniProt P08581 25-932).
T1 construct: extracellular domain; also called soluble cMet-Fc-fusion protein; soluble cMet receptor; not shown: Fc part
Nature of the test: phage ELISA on cMet-Fc, competitor HGF 100 ng/mL. Put shortly: (§1)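 Plates coated with 0.5 μg/mL cMet-Fc, with TRAIL-Fc as background, then blocked with 3% BSA. Bound phage detected with HRP anti-M13 antibody.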
For orientation: In an ELISA, binding on a coated surface is turned into a signal by an enzyme label.

In test [2] the target is T1, cMet-Fc fusion protein (extracellular …). Nature of the test: phage ELISA on cMet-Fc, competitor HGF 500 ng/mL. Put shortly:
as §1

Test [3] shares this target. Description: phage ELISA, cMet-Fc vs TRAIL-Fc. The essentials:
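Specificity check: phage displaying peptides incubated 2 h at room temperature on wells coated with 0.5 μg/mL cMet-Fc versus TRAIL-Fc, after blocking with 3% BSA/PBST. HRP-anti-M13 antibody detected binding phage.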

In test [4] the target is T2, human cMet expressed on 3T3 cells (human, UniProt P08581 25-1390).
T2 construct: whole, on cells; cells fixed with glutaraldehyde; also called cell surface-expressed human cMet; 3T3 cells that over-express human cMet
T2 sequence (P08581 25-1390): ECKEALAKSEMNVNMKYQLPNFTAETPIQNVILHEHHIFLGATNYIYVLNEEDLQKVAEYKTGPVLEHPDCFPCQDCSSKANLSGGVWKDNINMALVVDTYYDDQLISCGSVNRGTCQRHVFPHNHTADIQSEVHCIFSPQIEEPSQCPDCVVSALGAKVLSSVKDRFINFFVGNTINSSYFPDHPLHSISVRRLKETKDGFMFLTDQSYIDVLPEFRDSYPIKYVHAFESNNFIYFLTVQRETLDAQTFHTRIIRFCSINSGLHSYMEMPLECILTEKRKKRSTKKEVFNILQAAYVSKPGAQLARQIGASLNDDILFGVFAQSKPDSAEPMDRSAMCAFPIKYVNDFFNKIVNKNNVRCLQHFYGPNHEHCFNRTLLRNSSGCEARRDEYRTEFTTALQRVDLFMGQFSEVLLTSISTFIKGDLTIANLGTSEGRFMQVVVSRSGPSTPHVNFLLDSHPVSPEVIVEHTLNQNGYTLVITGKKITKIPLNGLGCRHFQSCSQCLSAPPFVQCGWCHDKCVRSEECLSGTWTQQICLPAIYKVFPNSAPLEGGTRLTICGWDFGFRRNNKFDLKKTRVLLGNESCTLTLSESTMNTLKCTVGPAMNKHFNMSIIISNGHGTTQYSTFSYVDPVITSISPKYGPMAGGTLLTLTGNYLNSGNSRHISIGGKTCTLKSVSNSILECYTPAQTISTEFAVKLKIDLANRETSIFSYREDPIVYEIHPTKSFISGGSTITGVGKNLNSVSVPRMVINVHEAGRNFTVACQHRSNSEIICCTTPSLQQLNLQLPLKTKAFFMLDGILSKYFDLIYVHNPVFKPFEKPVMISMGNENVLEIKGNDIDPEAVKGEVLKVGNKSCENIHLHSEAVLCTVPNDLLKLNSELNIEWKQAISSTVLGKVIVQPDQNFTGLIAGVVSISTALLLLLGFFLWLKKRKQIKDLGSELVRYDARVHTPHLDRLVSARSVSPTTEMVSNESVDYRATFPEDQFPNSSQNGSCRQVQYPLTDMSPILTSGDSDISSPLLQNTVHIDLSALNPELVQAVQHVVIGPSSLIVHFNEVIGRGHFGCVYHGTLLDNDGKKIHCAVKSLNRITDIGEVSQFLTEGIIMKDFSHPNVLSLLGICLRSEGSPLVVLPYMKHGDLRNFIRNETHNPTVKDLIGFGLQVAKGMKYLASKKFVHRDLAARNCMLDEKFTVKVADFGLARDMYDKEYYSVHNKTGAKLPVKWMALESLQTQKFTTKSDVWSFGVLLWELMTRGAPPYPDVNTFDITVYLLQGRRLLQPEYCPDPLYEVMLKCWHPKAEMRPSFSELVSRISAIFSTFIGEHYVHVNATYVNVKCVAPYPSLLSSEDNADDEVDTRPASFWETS
Nature of the test: whole cell phage ELISA, 3T3 human cMet vs 3T3. The essentials:
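Bound phage was detected with an HRP-conjugated anti-M13 antibody after PBST washes. The cells were cMet-over-expressing 3T3, read against plain 3T3.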

T1 sequence (P08581 25-932): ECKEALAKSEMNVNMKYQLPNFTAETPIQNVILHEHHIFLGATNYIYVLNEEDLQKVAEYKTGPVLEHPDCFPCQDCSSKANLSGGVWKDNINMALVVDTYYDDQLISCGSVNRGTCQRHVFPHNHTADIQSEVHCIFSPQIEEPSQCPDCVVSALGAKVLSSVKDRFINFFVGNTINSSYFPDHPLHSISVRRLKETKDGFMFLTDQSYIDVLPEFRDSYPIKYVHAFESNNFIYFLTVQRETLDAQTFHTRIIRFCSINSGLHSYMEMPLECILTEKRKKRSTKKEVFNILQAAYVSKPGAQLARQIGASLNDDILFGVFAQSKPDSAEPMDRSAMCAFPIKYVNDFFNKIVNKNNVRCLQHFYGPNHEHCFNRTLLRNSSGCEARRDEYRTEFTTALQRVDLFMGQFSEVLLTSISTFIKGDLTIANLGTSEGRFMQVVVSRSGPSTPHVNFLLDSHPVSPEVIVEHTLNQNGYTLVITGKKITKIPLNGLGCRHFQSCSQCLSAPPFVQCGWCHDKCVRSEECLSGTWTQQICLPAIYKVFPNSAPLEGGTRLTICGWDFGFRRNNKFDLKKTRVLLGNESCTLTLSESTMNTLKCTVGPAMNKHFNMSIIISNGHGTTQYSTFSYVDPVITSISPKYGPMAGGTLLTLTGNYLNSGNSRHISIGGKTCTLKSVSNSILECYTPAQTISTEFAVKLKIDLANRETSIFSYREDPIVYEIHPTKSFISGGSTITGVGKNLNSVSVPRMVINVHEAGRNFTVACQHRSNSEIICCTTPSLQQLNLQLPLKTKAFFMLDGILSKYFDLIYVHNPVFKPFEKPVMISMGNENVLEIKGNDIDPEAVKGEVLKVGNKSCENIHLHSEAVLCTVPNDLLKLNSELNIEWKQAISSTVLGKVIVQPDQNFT

Take GSEFECTGWPEFRCYEYAP [548-C10 peptide-displaying phage (SEQ ID NO: 100)]: the “% of binding in the absence of HGF” value in test [1] amounted to 69%; in test [2], 57%. Besides, the “Protein ELISA (fold over background)” value in test [3] amounted to 8.4 fold. Besides, the “WC ELISA (fold over background)” value in test [4] came out at 1.2 fold.
As for GSSQICAVYLDDTHNCERHAP [465-A03 peptide-displaying phage (SEQ ID NO: 373)], the “% of binding in the absence of HGF” value amounted to 33% in test [1] and 17% in test [2]. In addition, in test [3], the “Protein ELISA (fold over background)” value was determined as 4 fold. Further, the “WC ELISA (fold over background)” value in test [4] stood at 1.3 fold.
The corresponding values for AGGFACGPPWDICWMFGT [573-F04 peptide-displaying phage (SEQ ID NO: 011)] are 76%, 71%, 5.6 fold and 1.3 fold.
For GSQQICDRKEYRFQACLSDAP [443-H10 peptide-displaying phage (SEQ ID NO: 371)], the “% of binding in the absence of HGF” value in test [1] was determined as 124%; in test [2] it was 143%. Moreover, the “Protein ELISA (fold over background)” value in test [3] came to 3.4 fold. For the same molecule, the “WC ELISA (fold over background)” value in test [4] was 1.4 fold.
The corresponding values for GSMNMCDTTDEISPTCHPSAP [441-H01 peptide-displaying phage (SEQ ID NO: 378)] are 91%, 69%, 3.6 fold and 1.4 fold.
The corresponding values for GSFNICPYQWCTLWAP [561-C08 peptide-displaying phage (SEQ ID NO: 010)] are 92%, 96%, 3 fold and 1.37 fold.
With GSRFHCWQGDLMQTYCMPMAP [452-A03 peptide-displaying phage (SEQ ID NO: 376)], the “% of binding in the absence of HGF” value stood at 140% in test [1] and 112% in test [2]. In addition, the “Protein ELISA (fold over background)” value in test [3] came out at 3 fold. In test [4], the “WC ELISA (fold over background)” value worked out at 1.3 fold.
The like results for AGNYWCSGPPSFICHAVGT [549-D02 peptide-displaying phage (SEQ ID NO: 091)] were, in that order, 47%, 36%, 8.9 fold and 1.27 fold.
Turning to AGETFCSGWPTFECMQWGT [547-H03 peptide-displaying phage (SEQ ID NO: 095)], the entries for the “% of binding in the absence of HGF” value in test [1] and in test [2] were 109% and 53%, respectively. For the same molecule, in test [3], the “Protein ELISA (fold over background)” value amounted to 16.2 fold. Also, the “WC ELISA (fold over background)” value in test [4] turned out to be 1.23 fold.
The corresponding values for GSSARCDELINDFHSCLVMAP [445-E06 peptide-displaying phage (SEQ ID NO: 375)] are 83%, 73%, 4.3 fold and 1.33 fold.
Regarding GSSHCNQMITPWQNCGMRAP [446-E12 peptide-displaying phage (SEQ ID NO: 374)], the “% of binding in the absence of HGF” value was found to be 73% in test [1] and 83% in test [2]. The “Protein ELISA (fold over background)” value in test [3] stood at 3.3 fold. The “WC ELISA (fold over background)” value in test [4] turned out to be 1.37 fold.
The like results for GSLYRCLGEASPTPPCAYEAP [445-G12 peptide-displaying phage (SEQ ID NO: 380)] were, in that order, 85%, 52%, 4 fold and 1.37 fold.
The corresponding values for GSTKVCHEKWNQLFCHNQAP [549-G01 peptide-displaying phage (SEQ ID NO: 368)] are 62%, 18%, 7 fold and 1.27 fold.
The corresponding values for AGETFCVGNPSFECWSWGT [545-E05 peptide-displaying phage (SEQ ID NO: 094)] are 70%, 32%, 10.3 fold and 1.27 fold.
For the molecule GSTMSCWRWGRDAYSCNQMAP [557-A12 peptide-displaying phage (SEQ ID NO: 372)], the results for the “% of binding in the absence of HGF” value in test [1] and in test [2] were 87% and 62%, respectively. Further, the “Protein ELISA (fold over background)” value in test [3] stood at 4.6 fold. Also, in test [4], the “WC ELISA (fold over background)” value came out at 1.37 fold.
For AGEIFCVGPPTFTCMWTGT [552-G09 peptide-displaying phage (SEQ ID NO: 096)], the “% of binding in the absence of HGF” value in test [1] is 98%; in test [2] it was 68%. In test [3], the “Protein ELISA (fold over background)” value was 9.7 fold. In addition, in test [4], the “WC ELISA (fold over background)” value was determined as 1.27 fold.
In the case of AGWGWCSGPPMFMCTEYGT [551-A05 peptide-displaying phage (SEQ ID NO: 099)], the “% of binding in the absence of HGF” value in test [1] is 68%; in test [2] it was 42%. The “Protein ELISA (fold over background)” value in test [3] came out at 4 fold. In addition, the “WC ELISA (fold over background)” value in test [4] is 1.3 fold.
Consider GSQNNCEYGSRGSSFCLAMAP [465-C06 peptide-displaying phage (SEQ ID NO: 377)], for which the “% of binding in the absence of HGF” value in test [1] came to 184%; in test [2] it was 104%. For the same molecule, in test [3], the “Protein ELISA (fold over background)” value was found to be 6.4 fold. Moreover, the “WC ELISA (fold over background)” value in test [4] was 1.23 fold.
The like results for AGMTLCAGPPTFECYEVGT [552-F02 peptide-displaying phage (SEQ ID NO: 092)] were, in that order, 60%, 40%, 12.3 fold and 1.23 fold.
The corresponding values for AGETKCSGPPYFYCWMEGT [545-E04 peptide-displaying phage (SEQ ID NO: 093)] are 48%, 17%, 16.3 fold and 1.23 fold.
On to GSFFPCWRIDRFGYCHANAP [551-H10 peptide-displaying phage (SEQ ID NO: 370)], for which the “% of binding in the absence of HGF” value in test [1] came out at 88%; in test [2], 49%. Further, in test [3], the “Protein ELISA (fold over background)” value is 13.3 fold. Besides, in test [4], the “WC ELISA (fold over background)” value stood at 1.87 fold.
Take AGDFICQGPPSFVCTNIGT [550-A08 peptide-displaying phage (SEQ ID NO: 097)]: the “% of binding in the absence of HGF” value in test [1] amounted to 52%; in test [2], 51%. Further, in test [3], the “Protein ELISA (fold over background)” value was found to be 8.4 fold. Also, the “WC ELISA (fold over background)” value in test [4] was found to be 1.27 fold.
Take AGAFFCSGPPTFMCSLYGT [550-G07 peptide-displaying phage (SEQ ID NO: 098)]: the “% of binding in the absence of HGF” value in test [1] is 63%; in test [2], 36%. Moreover, the “Protein ELISA (fold over background)” value in test [3] turned out to be 6.2 fold. Besides, the “WC ELISA (fold over background)” value in test [4] turned out to be 1.27 fold.
Regarding GSMLGCLFEHQNKYDCYVLAP [443-D04 peptide-displaying phage (SEQ ID NO: 379)], the “% of binding in the absence of HGF” value is 69% in test [1] and 73% in test [2]. Further, the “Protein ELISA (fold over background)” value in test [3] was 3.2 fold. Further, the “WC ELISA (fold over background)” value in test [4] came out at 1.43 fold.
The like results for GSFAPCGWPSFAIDCIAEAP [545-C11 peptide-displaying phage (SEQ ID NO: 367)] were, in that order, 77%, 50%, 7.7 fold and 1.3 fold.
Regarding AGAWNCEYPTFICEWQGA [570-E07 peptide-displaying phage (SEQ ID NO: 012)], the results for the “% of binding in the absence of HGF” value in test [1] and in test [2] were 81% and 71%, respectively. Moreover, in test [3], the “Protein ELISA (fold over background)” value was determined as 4.5 fold. Besides, the “WC ELISA (fold over background)” value in test [4] stood at 1.27 fold.
The like results for GSILYCINRNDPQCPYTAP [465-C10 peptide-displaying phage (SEQ ID NO: 101)] were, in that order, 95%, 71%, 3 fold and 1.27 fold.
For the molecule AGPWKCTGPPTFSCIQFGT [548-D08 peptide-displaying phage (SEQ ID NO: 090)], the “% of binding in the absence of HGF” value in test [1] worked out at 97%; in test [2], 62%. In addition, the “Protein ELISA (fold over background)” value in test [3] amounted to 19.5 fold. Besides, in test [4], the “WC ELISA (fold over background)” value amounted to 1.23 fold.
